From the supplement of paper PMC10724198

Key:
[1] = test system: Saccharomyces cerevisiae; test: protein stability index of tFT-peptide fusion in wild type (PSI (0-1 scale)); higher = more stable (slower turnover); settings: genetic background: wild type
[2] = test system: Saccharomyces cerevisiae; test: protein stability index of tFT-peptide fusion in deletion strain of DOA10 (PSI (0-1 scale)); higher = more stable (slower turnover)
Experimental: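 MPS profiling in S. cerevisiae of two library types built from selected 12-aa C-degron peptides (IN1, IN2, LN1, LN3, VN2, R1-R5, W1-W3, Atg1 and Rpa12 C-termini): saturation mutagenesis libraries and C-terminal +1 capping libraries (13 aa). Each peptide is fused to the C-terminus of a sfGFP-mCherry timer, after a GGGS linker. Cells are FACS-sorted into 8 mCherry/sfGFP bins and sequenced. PSI runs from 0 (unstable) to 1 (stable), measured once in wild type and in the das1Δ or doa10Δ background.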
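Wherever protein stability index of tFT-peptide fusion in deletion strain of DOA10 is given: PSI per variant is the weighted mean of its sequencing read distribution over the sorted stability bins, counting only variants with over 10 reads summed across bins.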
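Wherever protein stability index of tFT-peptide fusion in wild type is given: PSI derived as read-weighted mean over the 8 sorting bins, only variants exceeding 10 total reads kept, mCherry placed adjacent to the peptide and sfGFP distal.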

Sequence | protein stability index [1] | protein stability index [2]
CLVSLPILLFFN | 0.118 | 0.288
CLVSLPILLFFRC | 0.0599 | 0.45
CLVSLPILLFFRG | 0.0927 | 0.564
CLVSLPILLFFRI | 0.0568 | 0.469
CLVSLPILLFFRM | 0.0495 | 0.458
CLVSLPILLFFS | 0.297 | 0.467
CLVSLPILLFQR | 0.515 | 0.583
CLVSLPILLNFR | 0.424 | 0.655
CLVSLPILLWFR | 0.0579 | 0.567
CLVSLPIWLFFR | 0.0275 | 0.58
CLVSRPILLFFR | 0.115 | 0.638
CLVTLPILLFFR | 0.048 | 0.576
CLVYLPILLFFR | 0.0623 | 0.404
CLYMCSVGCWFR | 0.276 | 0.584
CTVSLPILLFFR | 0.0564 | 0.619
DSLRVLLPLYFR | 0.33 | 0.676
GITLPMCPLLLR | 0.099 | 0.668
GLKMCSVGCWFR | 0.247 | 0.678
GLYMCKVGCWFR | 0.396 | 0.631
GLYMCSIGCWFR | 0.231 | 0.602
GLYMCSKGCWFR | 0.489 | 0.673

Sequence | protein stability index [1] | protein stability index [2]
GLYMCSVECWFR | 0.456 | 0.465
GLYMCSVGCWFQ | 0.476 | 0.504
GLYMCSVGCWFRY | 0.173 | 0.619
GLYMCSVGCWFV | 0.4 | 0.467
GLYMCSVGCWKR | 0.612 | 0.66
GLYMCSVGCWSR | 0.584 | 0.622
GLYMCSVGCWYR | 0.407 | 0.611
GLYMCSVGTWFR | 0.514 | 0.668
GLYMCSVGVWFR | 0.198 | 0.453
GLYMCSVVCWFR | 0.253 | 0.314
GLYMCSWGCWFR | 0.296 | 0.665
GLYMKSVGCWFR | 0.257 | 0.673
GLYNCSVGCWFR | 0.414 | 0.674
GLYRCSVGCWFR | 0.428 | 0.67
GVYMCSVGCWFR | 0.276 | 0.622
GYYMCSVGCWFR | 0.227 | 0.643
LITLPMCPLLLR | 0.349 | 0.626
NVTRLDAIYFRI | 0.379 | 0.711
RGLRVLLPLYFR | 0.378 | 0.673
RGTRLDAIYFRI | 0.57 | 0.684
RSHRVLLPLYFR | 0.317 | 0.651

Sequence | protein stability index [1] | protein stability index [2]
RSLEVLLPLYFR | 0.219 | 0.691
RSLNVLLPLYFR | 0.266 | 0.669
RSLQVLLPLYFR | 0.264 | 0.675
RSLRGLLPLYFR | 0.444 | 0.696
RSLRRLLPLYFR | 0.466 | 0.683
RSLRVCLPLYFR | 0.194 | 0.671
RSLRVLHPLYFR | 0.218 | 0.701
RSLRVLLNLYFR | 0.397 | 0.659
RSLRVLLPEYFR | 0.653 | 0.677
RSLRVLLPFYFR | 0.564 | 0.668
RSLRVLLPIYFR | 0.242 | 0.663
RSLRVLLPLNFR | 0.535 | 0.671
RSLRVLLPLPFR | 0.64 | 0.676
RSLRVLLPLYFRM | 0.202 | 0.411
RSLRVLLPLYQR | 0.617 | 0.659
RSLRVLLPLYRR | 0.624 | 0.673
RSLRVLLQLYFR | 0.383 | 0.606
RSLRVVLPLYFR | 0.178 | 0.679
RSLSVLLPLYFR | 0.289 | 0.682
RTLRVLLPLYFR | 0.304 | 0.657
RTTRLDAIYFRI | 0.498 | 0.658

Sequence | protein stability index [1] | protein stability index [2]
RVGRLDAIYFRI | 0.412 | 0.647
RVTRADAIYFRI | 0.525 | 0.684
RVTRDDAIYFRI | 0.652 | 0.684
RVTRLDADYFRI | 0.686 | 0.722
RVTRLDAEYFRI | 0.675 | 0.693
RVTRLDAFYFRI | 0.644 | 0.713
RVTRLDAIIFRI | 0.499 | 0.703
RVTRLDAIYDRI | 0.696 | 0.731
RVTRLDAIYFGI | 0.682 | 0.721
RVTRLDAIYFRID | 0.54 | 0.603
RVTRLDAIYGRI | 0.69 | 0.724
RVTRLDAIYSRI | 0.702 | 0.737
RVTRLDATYFRI | 0.661 | 0.69
RVTRLDDIYFRI | 0.689 | 0.731
RVTRLDTIYFRI | 0.423 | 0.69
RVTYLDAIYFRI | 0.393 | 0.563
RYTRLDAIYFRI | 0.421 | 0.673
VITLPMCPLLLR | 0.303 | 0.615
YITLPMCPLLLR | 0.337 | 0.616
YLYMCSVGCWFR | 0.317 | 0.586
YVTRLDAIYFRI | 0.185 | 0.603
